The Kd is the equilibrium constant for the complex coming apart. Read a low Kd as a tighter complex.

Here are results for one substance from PMC2063460.

The series relates to Tus-LPETGG-His6 (sortase-immobilized on glycine-modified GMA beads) (Escherichia coli). The series is described as follows: bead-based fluorescence binding (FACS). As to conditions: 50 mM Tris-HCl, 250 mM KCl, 0.1 mM EDTA, 0.1 mM DTT, pH 9; temperature of binding not stated.

In turn, TerB gave a Kd of 29 nM.
